Data from US20210115113A1 (CITY OF HOPE, published 2021).

T1: EBV gp350 on EBV-eGFP virions (Epstein-Barr virus, UniProt P03200 1-907)
T1 sequence: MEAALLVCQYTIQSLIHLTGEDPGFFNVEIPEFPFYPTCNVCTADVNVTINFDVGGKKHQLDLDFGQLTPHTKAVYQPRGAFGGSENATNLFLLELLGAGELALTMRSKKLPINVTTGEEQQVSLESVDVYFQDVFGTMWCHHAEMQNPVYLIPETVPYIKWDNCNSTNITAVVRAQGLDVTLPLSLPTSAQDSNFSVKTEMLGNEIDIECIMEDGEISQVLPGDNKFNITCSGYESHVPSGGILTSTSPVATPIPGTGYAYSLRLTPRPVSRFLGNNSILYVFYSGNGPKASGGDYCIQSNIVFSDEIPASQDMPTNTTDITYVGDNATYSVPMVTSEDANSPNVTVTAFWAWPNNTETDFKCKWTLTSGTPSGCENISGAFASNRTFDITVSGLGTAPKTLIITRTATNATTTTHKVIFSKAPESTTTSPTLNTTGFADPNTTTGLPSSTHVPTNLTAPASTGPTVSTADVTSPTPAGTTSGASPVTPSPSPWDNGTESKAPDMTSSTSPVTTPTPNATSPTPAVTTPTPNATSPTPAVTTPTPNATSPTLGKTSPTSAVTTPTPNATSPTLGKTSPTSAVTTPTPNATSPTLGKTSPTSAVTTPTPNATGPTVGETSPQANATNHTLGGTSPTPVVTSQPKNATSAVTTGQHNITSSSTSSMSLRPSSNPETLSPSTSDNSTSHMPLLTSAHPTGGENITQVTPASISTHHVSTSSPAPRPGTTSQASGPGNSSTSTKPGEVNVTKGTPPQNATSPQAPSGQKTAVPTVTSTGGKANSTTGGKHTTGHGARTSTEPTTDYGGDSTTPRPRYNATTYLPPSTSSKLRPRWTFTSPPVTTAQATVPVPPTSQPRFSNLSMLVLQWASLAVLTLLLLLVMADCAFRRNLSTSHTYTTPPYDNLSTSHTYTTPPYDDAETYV

T2: EBV gp350 expressed on the surface of stably transfected CHO cells (Epstein-Barr virus, UniProt P03200 1-907)
T2 construct: also called native gp350; gp350 expressing CHO cells
T2 sequence: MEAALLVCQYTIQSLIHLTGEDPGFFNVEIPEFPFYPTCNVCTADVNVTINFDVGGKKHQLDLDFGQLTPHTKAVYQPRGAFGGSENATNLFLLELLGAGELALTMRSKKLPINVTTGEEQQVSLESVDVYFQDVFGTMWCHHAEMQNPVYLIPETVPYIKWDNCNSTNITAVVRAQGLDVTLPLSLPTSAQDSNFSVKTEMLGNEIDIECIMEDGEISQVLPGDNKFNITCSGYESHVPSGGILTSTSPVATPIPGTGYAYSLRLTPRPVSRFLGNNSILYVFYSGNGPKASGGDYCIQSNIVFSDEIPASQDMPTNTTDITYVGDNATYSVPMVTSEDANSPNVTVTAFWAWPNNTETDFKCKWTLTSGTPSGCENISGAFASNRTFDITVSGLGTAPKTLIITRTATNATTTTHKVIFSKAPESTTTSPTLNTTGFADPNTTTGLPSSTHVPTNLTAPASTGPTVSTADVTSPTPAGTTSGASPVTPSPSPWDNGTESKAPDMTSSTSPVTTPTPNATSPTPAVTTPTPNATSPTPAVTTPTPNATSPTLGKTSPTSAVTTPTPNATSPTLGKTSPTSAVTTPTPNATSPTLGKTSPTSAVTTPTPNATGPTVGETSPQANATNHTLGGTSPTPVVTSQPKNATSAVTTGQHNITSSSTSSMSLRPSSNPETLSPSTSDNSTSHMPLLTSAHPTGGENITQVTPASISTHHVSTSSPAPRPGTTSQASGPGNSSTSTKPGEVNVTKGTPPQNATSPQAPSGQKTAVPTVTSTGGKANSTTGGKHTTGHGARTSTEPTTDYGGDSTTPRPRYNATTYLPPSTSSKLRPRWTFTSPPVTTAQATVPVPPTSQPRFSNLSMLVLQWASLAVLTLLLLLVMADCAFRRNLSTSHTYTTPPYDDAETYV

B1: HB1 (antibody, V domains shown)
VH: PGLVAPSQSLSITCTVSGFLLTTYGVHWVRQPPGKGLEWLGVIWAGGSTNYNSALMSRLSINKDISKSQVFLKMNSLQTDDTAMYYCTRDRGYGYLYAMDYWGQGTSVTVSS
VL: KFMSTSVGDRVSVTCKASQNVGTNVAWYQQKPGQSPKALIYSTSSRYTGVPDRFAGSGSGTDYTLTISNVQSEDLAEYFCQQYNTYPYTFGGGTRLDIKR
B2: HB11 (antibody, V domains shown)
VH: PSLVKPSQTLSLTCSVTGDSITSGFWNWIRKFPGNKLEYMGYISYSGSTYYNPSLKSRISITRDTSKNQYYLQLNSVTTEDTATYYCARGNGGNYDWYFDVWGAGTTVTVSS
VL: AIMSASLGEKVTMSCRASSSVNFMNWYQQKSDDSPKLLIYYISNLAPGVPARFSGSGSGNSYSLTISGMEGEDAATYYCQQFTSSPSWTFGGGTKLEIKR
B3: HB5 (antibody, V domains shown)
VH: AELVRPGASVKISCKAFGYTFTNHNINWVKQRPGQGLDWIGYINPYNDYTSYNQKFKGKATLTVDKSSNTAYMELSSLTSEDSAVYYCARSEGWLRRGAWFAYWGQGTLVTVSA
VL: AILSVSPGERVSFSCRASQSIGTSIHWYQQRTNDSPRLLIKYASESISGIPPRFSGSGSGTDFTLSINSVESEDIADYHCQQSNSWPMLTFGAGTKLELKR
notes: also called mHB5
B4: HB17 (antibody, V domains shown)
VH: AELVIPGASVKVSCKASGYTFTSYWIHWVKQWPGQGLEWIGEINPNNGHTNYNEKFKSKATLTVDKSSSTAYMQLSSLTSEDSAVYYCARNLFYYSRPDYWGQGTSVTVSS
VL: SSLSASLGDRVTISCRASQDIGNYLNWYQQKPDGTIKLLIYYTSRLHSGVPSRFSGSGSGTDYSLTISNLEEEDIATYFCQQGNTLPPTFGGGTKLEIKR
B5: murine 72A1 (m72A1), anti-EBV gp350 neutralizing antibody from hybridoma HB168 (antibody, V domains shown)
VH: EVQLQQSGPELVKPGTSMKISCKASGSSFTDYTMNWMKQSHGKNLEWIGLINPYNGGTRYNQKFKGKATLTLDKSSSTAYMEVLSLTSEDSAVYYCAGGLRRVNWFAYWGQGTLVSVSA
VL: QAVLTQESALTTSPGETVTLTCRSSTGAVTTSNYANWVQEKPDHLFTGLIGGTNNRVPGVPARFSGSLIGDKAALTITGAQTEDEAIYFCVLWHSNHWVFGGGTKLTVL
notes: also called nAb-72A1; mouse 72A1

Tests used:
[1] = biological target: T1, EBV gp350 on EBV-eGFP virions; test: cell-based or functional assay
[2] = biological target: T2, EBV gp350 expressed on the surface of …; test: cell competition (flow), unlabeled 125 µg/ml; competitor: biotinylated m72A1 1 µg/ml
[3] = biological target: T2, EBV gp350 expressed on the surface of …; test: cell competition (flow), unlabeled 250 µg/ml; competitor: biotinylated m72A1 1 µg/ml
[4] = biological target: T2, EBV gp350 expressed on the surface of …; test: cell competition (flow), unlabeled 500 µg/ml; competitor: biotinylated m72A1 1 µg/ml
[5] = biological target: T2, EBV gp350 expressed on the surface of …; test: cell competition (flow), unlabeled 67.5 µg/ml; competitor: biotinylated m72A1 1 µg/ml
[6] = biological target: T2, EBV gp350 expressed on the surface of …; test: cross-competition on gp350-CHO cells (flow), unlabeled 500 µg/ml; competitor: biotinylated HB1
[7] = biological target: T2, EBV gp350 expressed on the surface of …; test: cross-competition on gp350-CHO cells (flow), unlabeled 500 µg/ml; competitor: biotinylated HB5
[8] = biological target: T2, EBV gp350 expressed on the surface of …; test: cross-competition on gp350-CHO cells (flow), unlabeled 500 µg/ml; competitor: biotinylated 54A1
[9] = biological target: T2, EBV gp350 expressed on the surface of …; test: cross-competition on gp350-CHO cells (flow), unlabeled 500 µg/ml; competitor: biotinylated HB11
[10] = biological target: T2, EBV gp350 expressed on the surface of …; test: cross-competition on gp350-CHO cells (flow), unlabeled 500 µg/ml; competitor: biotinylated HB17
[11] = biological target: T2, EBV gp350 expressed on the surface of …; test: cross-competition on gp350-CHO cells (flow), unlabeled 500 µg/ml; competitor: biotinylated HB20
[12] = biological target: T2, EBV gp350 expressed on the surface of …; test: cross-competition on gp350-CHO cells (flow), unlabeled 500 µg/ml; competitor: biotinylated h72A1
[13] = biological target: T2, EBV gp350 expressed on the surface of …; test: cross-competition on gp350-CHO cells (flow), unlabeled 500 µg/ml; competitor: biotinylated m72A1

Row | Binder | % neutralization of EBV-eGFP infection of Raji cells at 100 µg/ml [1] [%] | % inhibition of biotinylated nAbs [2] [%] | % inhibition of biotinylated nAbs [3] [%] | % inhibition of biotinylated nAbs [4] [%] | % inhibition of biotinylated nAbs [5] [%] | % inhibition of biotinylated nAbs [6] [%] | % inhibition of biotinylated nAbs [7] [%] | % inhibition of biotinylated nAbs [8] [%] | % inhibition of biotinylated nAbs [9] [%] | % inhibition of biotinylated nAbs [10] [%] | % inhibition of biotinylated nAbs [11] [%] | % inhibition of biotinylated nAbs [12] [%] | % inhibition of biotinylated nAbs [13] [%]
1 | B1 | 90 | 81 | 89 | 91 | 81 | 92 | 97 | 4 | 96 | 16 | 61 | 95 | 98
2 | B2 | 90 | 89 | 95 | 95 | 87 | 93 | 96 | 9 | 96 | 17 | 3 | 97 | 97
3 | B3 |  | 92 | 93 | 95 | 94 | 92 | 98 | 13 | 93 | 9 | 73 | 97 | 97
4 | B4 |  | 6 | 32 | 32 | 0 | 23 | 32 | 0 | 11 | 86 | 17 | 16 | 24
5 | B5 |  | 94 | 93 | 91 | 97 | 82 | 97 | 1 | 90 | 37 | 31 | 98 | 98
